Experimental data published in patent US20050048066A1 (published 2005).

target: HLA-DR1 (human); test: competitive binding assay; DR1 format not described

| Binder | IC50 [µM] |
| --- | --- |
| HFVMQRLPLYFIVN (peptide, UniProt P02708 224-237, looked up) [AChRα peptide 204-217] | 1.75 |
| KYVAMVMDHILLGV (peptide, UniProt P02708 420-433, looked up) [AChRα peptide 400-413] | 11.7 |
| QLIQLINVDEVNQI (peptide, UniProt P02708 56-69, looked up, range 36-49; also called AChRα 36-49) [AChRα peptide 36-49] | 11.2 |
